Results from patent US20220273573A1, “SOLID DISPERSION GENISTEIN COMPOSITIONS AND METHODS OF MAKING AND USING THE SAME” (priority 2020, published 2022).

Test system: mice exposed to bilateral whole-body irradiation
Assay: Prophylactic efficacy, 180-day survival after whole-body irradiation
Assay type: in vivo
Settings: single subcutaneous injection 0.3 mg/kg 24 hours after 9.2 Gy whole-body irradiation
Protocol: In another study, selected samples of Example 3 were each orally administered at 200 mg Genistein/kg twice per day to groups of mice for 6 consecutive days. A separate vehicle control and genistein group was included for each sample formulation. The mice were then exposed to bilateral whole-body irradiation at a dose of 9.2 Gy at 0.6 Gy/min and the 180-day survival rate was observed. As additional controls, an injectable suspension (200 mg Genistein/kg) and corresponding vehicle were also administered to groups of mice via intramuscular injection 24 hours prior to exposure to bilateral whole-body irradiation at a dose of 9.2 Gy at 0.6 Gy/min. A separate group of mice was also administered a single subcutaneous injection of Neulasta® (0.3 mg/kg), an FDA-approved radiation treatment drug, 24 hours after exposure to bilateral whole-body irradiation at a dose of 9.2 Gy at 0.6 Gy/min. The results of this study are shown in Table 5 as percentage of surviving animals, and the number of surviving animals compared to the total number of animals in the study and depicted in FIG. 3.

B1: Neulasta ®: an FDA-approved radiation treatment drug, single subcutaneous injection (protein, UniProt P09919 31-207, looked up)
Granulocyte …: TPLGPASSLPQSFLLKCLEQVRKIQGDGAALQEKLVSECATYKLCHPEELVLLGHSLGIPWAPLSSCPSQALQLAGCLSQLHSGLFLYQGLLQALEGISPELGPTLDTLQLDVADFATTIWQQMEELGMAPALQPTQGAMPAFASAFQRRAGGVLVASHLQSFLEVSYRVLRHLAQP
modifications: pegfilgrastim; PEG, N-terminal Met
notes: an FDA-approved radiation treatment drug, single subcutaneous injection
  180-Day Survival: 56% (9/16)
